From patent publication US20240327534A1 (HARPOON THERAPEUTICS, published 2024)
Where a chain is given by its changes, count along the chain named.

T1: human BCMA on BCMA expressing cell lines (human, UniProt Q02223 1-184)
T1 sequence: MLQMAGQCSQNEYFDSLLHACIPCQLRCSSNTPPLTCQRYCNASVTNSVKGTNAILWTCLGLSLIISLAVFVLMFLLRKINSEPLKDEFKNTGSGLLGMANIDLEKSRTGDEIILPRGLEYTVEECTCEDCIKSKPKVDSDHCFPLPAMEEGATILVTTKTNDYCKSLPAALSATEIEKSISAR

T2: human BCMA protein (human, UniProt Q02223 1-54, limits assumed)
T2 sequence: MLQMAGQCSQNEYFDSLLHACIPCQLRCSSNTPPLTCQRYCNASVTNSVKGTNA

B1: BCMA targeting trispecific protein 01F12 (other)
VHH: EVQLVESGGGLVQPGRSLTLSCAASTNIFRISPMGWYRQAPGKQRELVAAIHGDSTLYADSVKGRFTISRDNAKNSIYLQMNSLRPEDTALYYCNKVPWGRYHPRNVYWGQGTQVTVSS
notes: trispecific; not shown: anti-albumin domain, anti-CD3 domain and the linkers of the trispecific; the C-terminal His6 that follows them is left out
B2: BCMA targeting trispecific protein 02G01 (other)
VHH: B1 VHH with R30S, S32N, D54F, S55D, R101D, Y108S
notes: trispecific; not shown: the C-terminal 6xHis tag follows those missing domains and is left out
B3: BCMA targeting trispecific protein 02F03 (other, not shown: large carriers; small tags and cut ends)
VHH: B1 VHH with R30S, S32Y, D54S, R101D, R105K
notes: trispecific
B4: BCMA targeting trispecific protein 02G08 (other, not shown: large carriers; small tags and cut ends)
VHH: B1 VHH with F29D, R30S, D54E, R101D, Y108T
notes: trispecific
B5: BCMA targeting trispecific protein 02G11 (other, not shown: large carriers; small tags and cut ends)
VHH: B1 VHH with F29D, R30S, D54S, R101D, Y108T
notes: trispecific
B6: BCMA targeting trispecific protein 02D06 (other, not shown: large carriers; small tags and cut ends)
VHH: B1 VHH with F29S, R30S, D54F, L57V
notes: trispecific
B7: BCMA targeting trispecific protein 02H06 (other)
VHH: B1 VHH with F29R, R30S, D54S, R101D, Y108V
notes: trispecific; not shown: The C-terminal 6xHis tag is left out because it follows these missing domains
B8: BCMA targeting trispecific protein 02C05 (other)
VHH: B1 VHH with R30S, I31E, D54F, S55T, R101D, Y108T
notes: trispecific; not shown: anti-albumin domain, anti-CD3 domain and the linkers of the trispecific (TriTAC) chain; the C-terminal 6xHis tag follows these missing domains and is left out
B9: BCMA targeting trispecific protein 02H09 (other, not shown: large carriers; small tags and cut ends)
VHH: B1 VHH with R30S, I31R, D54S, R101D, R105G
notes: trispecific
B10: BCMA targeting trispecific protein 02C01 (other)
VHH: B1 VHH with F29I, R30S, D54A, R101D, R105G
notes: as for B1
B11: BCMA targeting trispecific protein 02A05 (other, not shown: large carriers; small tags and cut ends)
VHH: B1 VHH with F29A, R30S, D54K, R101D, R105G
notes: trispecific
B12: BCMA targeting trispecific protein 01G11 (other, not shown: large carriers; small tags and cut ends)
VHH: B1 VHH with F29P, R30S, D54A, R101D, Y108A
notes: trispecific
B13: BCMA targeting trispecific protein 02G07 (other, not shown: large carriers; small tags and cut ends)
VHH: B1 VHH with R30S, S32T, D54E, R101D, N106D
notes: trispecific
B14: BCMA targeting trispecific protein 02B07 (other)
VHH: B1 VHH with R30S, I31S, D54H, R101D, Y108T
notes: trispecific; not shown: anti-albumin domain, anti-CD3 domain and the linkers of the trispecific (TriTAC) format
B15: BCMA targeting trispecific protein 02D11 (other)
VHH: B1 VHH with I28E, R30S, D54E, R101D, R105G
notes: trispecific; not shown: the C-terminal His6 follows those missing domains and is left out
B16: BCMA targeting trispecific protein 01G06 (other, not shown: large carriers; small tags and cut ends)
VHH: B1 VHH with R30S, I31R, D54F, S55E, R101D, Y108L
notes: trispecific
B17: BCMA targeting trispecific protein 02A07 (other, not shown: large carriers; small tags and cut ends)
VHH: B1 VHH with R30S, I31K, D54N, R101D, N106E
notes: trispecific
B18: BCMA targeting trispecific protein 01G10 (other, not shown: large carriers; small tags and cut ends)
VHH: B1 VHH with I28E, R30S, D54L, R101A
notes: trispecific
B19: BCMA targeting trispecific protein 02F12 (other, not shown: large carriers; small tags and cut ends)
VHH: B1 VHH with F29E, R30S, D54T, R101D, R105G
notes: trispecific
B20: BCMA targeting trispecific protein 02A11 (other)
VHH: B1 VHH with I28H, R30S, D54S, R101D, N106V
notes: trispecific; also called 02All; not shown: the C-terminal 6xHis tag follows those domains and is left out
B21: BCMA targeting trispecific protein 02F06 (other, not shown: large carriers; small tags and cut ends)
VHH: B1 VHH with R30S, S32T, D54E
notes: trispecific
B22: BCMA targeting trispecific protein 02G09 (other)
VHH: B1 VHH with R30S, I31D, D54F, R101D, Y108A
notes: as for B7
B23: BCMA targeting trispecific protein 01H10 (other)
VHH: B1 VHH with F29P, R30S, D54E, R101D
notes: as for B7
B24: BCMA targeting trispecific protein 01G01 (other)
VHH: B1 VHH with F29V, R30S, R101D, N106R
notes: as for B2
B25: BCMA targeting trispecific protein 02H04 (other)
VHH: B1 VHH with R30S, I31V, D54N, R101D
notes: trispecific; not shown: the C-terminal 6xHis tag follows those domains and is left out
B26: BCMA targeting trispecific protein 01H09 (other)
VHH: B1 VHH with F29M, R30S, D54N, R101D, R105G
notes: as for B15
B27: BCMA targeting trispecific protein 01H11 (other, not shown: large carriers; small tags and cut ends)
VHH: B1 VHH with A23V, R30S, I31T, D54F, R101D, R105G
notes: trispecific
B28: BCMA targeting trispecific protein 02H11 (other)
VHH: B1 VHH with F29T, R30S, D54E, R101D
notes: as for B25
B29: BCMA targeting trispecific protein 01H05 (other, not shown: large carriers; small tags and cut ends)
VHH: B1 VHH with R30S, S32T, D54T
notes: trispecific
B30: BCMA targeting trispecific protein 02B04 (other)
VHH: B1 VHH with R30S, I31T, D54F, L57I, R101D, R105L
notes: as for B2
B31: BCMA targeting trispecific protein 02E03 (other)
VHH: B1 VHH with R30S, I31N, D54P, R101D, Y108T
notes: as for B8
B32: BCMA targeting trispecific protein 02C03 (other)
VHH: B1 VHH with F29A, R30S, D54S, R101D, R105G
notes: as for B15
B33: BCMA targeting trispecific protein 01H01 (other, not shown: large carriers; small tags and cut ends)
VHH: B1 VHH with F29G, R30S, D54Q, R101D, R105Q
notes: trispecific
B34: BCMA targeting trispecific protein 02B01 (other, not shown: large carriers; small tags and cut ends)
VHH: B1 VHH with R30S, I31N, D54R, R101D, Y108M
notes: trispecific
B35: BCMA targeting trispecific protein 02H05 (other)
VHH: B1 VHH with I28Q, R30S, D54K, R101D, Y108V
notes: as for B7
B36: BCMA targeting trispecific protein 02A08 (other, not shown: large carriers; small tags and cut ends)
VHH: B1 VHH with R30S, I31R, D54E, R105G
notes: trispecific
B37: BCMA targeting trispecific protein 02F11 (other)
VHH: B1 VHH with R30S, I31T, D54T, R101D, Y108Q
notes: as for B14
B38: BCMA targeting trispecific protein 02G06 (other, not shown: large carriers; small tags and cut ends)
VHH: B1 VHH with R30S, I31G, D54N, R101D, R105G
notes: trispecific
B39: BCMA targeting trispecific protein 02C06 (other, not shown: large carriers; small tags and cut ends)
VHH: B1 VHH with R30S, I31T, D54T, R101D, R105G
notes: trispecific
B40: BCMA targeting trispecific protein 02B12 (other, not shown: large carriers; small tags and cut ends)
VHH: B1 VHH with F29S, R30S, D54F, S55D, R101D
notes: trispecific
B41: BCMA targeting trispecific protein 02F07 (other)
VHH: B1 VHH with F29E, R30S, D54F, R101D, R105G
notes: as for B15
B42: BCMA targeting trispecific protein 01H04 (other)
VHH: B1 VHH with R30S, I31K, D54Q, R101D, Y108T
notes: as for B14
B43: BCMA targeting trispecific protein 02H01 (other, not shown: large carriers; small tags and cut ends)
VHH: B1 VHH with R30S, I31K, D54S, R101D
notes: trispecific
B44: BCMA targeting trispecific protein 02A04 (other)
VHH: B1 VHH with R30S, I31Q, D54K, R101D, R105S, Q111K
notes: as for B7
B45: BCMA targeting trispecific protein 01G09 (other)
VHH: B1 VHH with R30N, D54F, L57Y
notes: as for B1
B46: BCMA targeting trispecific protein 01G04 (other, not shown: large carriers; small tags and cut ends)
VHH: B1 VHH with F29D, R30S, D54N, R101D, N106M
notes: trispecific
B47: BCMA targeting trispecific protein 02F05 (other, not shown: large carriers; small tags and cut ends)
VHH: B1 VHH with R30S, I31V, D54N, R101K
notes: trispecific
B48: BCMA targeting trispecific protein 02G05 (other, not shown: large carriers; small tags and cut ends)
VHH: B1 VHH with F29T, R30S, D54N, R101D, R105G
notes: trispecific
B49: BCMA targeting trispecific protein 02E09 (other, not shown: large carriers; small tags and cut ends)
VHH: B1 VHH with I28D, R30S, D54G, R101D, Y108A
notes: trispecific
B50: BCMA targeting trispecific protein 02B11 (other)
VHH: B1 VHH with F29V, R30S, R101D, Y108S
notes: as for B14

Biological target: T1, human BCMA on BCMA expressing cell lines
Test: cell-based or functional assay

| TDCC EC50 (EJM cells) | Binder |
| --- | --- |
| 0.392 nM | B1 |
| 0.0108 nM | B2 |
| 0.0245 nM | B3 |
| 0.0286 nM | B4 |
| 0.0238 nM | B5 |
| 0.0428 nM | B6 |
| 0.0319 nM | B7 |
| 0.0162 nM | B8 |
| 0.00288 nM | B9 |
| 0.00155 nM | B10 |
| 0.00421 nM | B11 |
| 0.00398 nM | B12 |
| 0.0446 nM | B13 |
| 0.0142 nM | B14 |
| 0.00235 nM | B15 |
| 0.0192 nM | B16 |
| 0.0279 nM | B17 |
| 0.143 nM | B18 |
| 0.00314 nM | B19 |
| 0.0606 nM | B20 |
| 0.0193 nM | B21 |
| 0.0396 nM | B22 |
| 0.0352 nM | B23 |
| 0.00583 nM | B24 |
| 0.0599 nM | B25 |

| TDCC EC50 (EJM cells) | Binder |
| --- | --- |
| 0.00221 nM | B26 |
| 0.00317 nM | B27 |
| 0.0775 nM | B28 |
| 0.0454 nM | B29 |
| 0.0113 nM | B30 |
| 0.0165 nM | B31 |
| 0.00252 nM | B32 |
| 0.118 nM | B33 |
| 0.0518 nM | B34 |
| 0.0389 nM | B35 |
| 0.0201 nM | B36 |
| 0.0152 nM | B37 |
| 0.00339 nM | B38 |
| 0.00195 nM | B39 |
| 0.124 nM | B40 |
| 0.00259 nM | B41 |
| 0.0147 nM | B42 |
| 0.0542 nM | B43 |
| 0.0382 nM | B44 |
| 0.441 nM | B45 |
| 0.0241 nM | B46 |
| 0.003 nM | B47 |
| 0.00433 nM | B48 |
| 0.0311 nM | B49 |
| 0.0144 nM | B50 |

Biological target: T2, human BCMA protein
Test: affinity to human BCMA protein, method not stated

| Kd | Binder |
| --- | --- |
| 40.5 nM | B1 |
| 16.3 nM | B2 |
| 25.7 nM | B3 |
| 18 nM | B4 |
| 20.5 nM | B5 |
| 23.3 nM | B6 |
| 23.3 nM | B7 |
| 15.6 nM | B8 |
| 6.83 nM | B9 |
| 5.31 nM | B10 |
| 7.06 nM | B11 |
| 9.7 nM | B12 |
| 19.3 nM | B13 |
| 15.8 nM | B14 |
| 6.71 nM | B15 |
| 17 nM | B16 |
| 18.4 nM | B17 |
| 41.9 nM | B18 |
| 7.76 nM | B19 |
| 25.2 nM | B20 |
| 21.9 nM | B21 |
| 34.4 nM | B22 |
| 24.8 nM | B23 |
| 14.6 nM | B24 |
| 31.1 nM | B25 |

| Kd | Binder |
| --- | --- |
| 5.44 nM | B26 |
| 7.06 nM | B27 |
| 27.5 nM | B28 |
| 27.4 nM | B29 |
| 15.2 nM | B30 |
| 16.8 nM | B31 |
| 7.09 nM | B32 |
| 35.9 nM | B33 |
| 21.4 nM | B34 |
| 19.6 nM | B35 |
| 9.51 nM | B36 |
| 20 nM | B37 |
| 7.5 nM | B38 |
| 6.9 nM | B39 |
| 25.2 nM | B40 |
| 7.06 nM | B41 |
| 17.4 nM | B42 |
| 35.6 nM | B43 |
| 17.6 nM | B44 |
| 87.8 nM | B45 |
| 11.7 nM | B46 |
| 7.15 nM | B47 |
| 7.12 nM | B48 |
| 20.9 nM | B49 |
| 13.3 nM | B50 |
